From patent US20210009993A1 (ROCHE DIAGNOSTICS OPERATIONS, published 2021) come the findings set out here.

A word on the Kd: it is a measure of binding affinity in units of concentration. High values mean a looser complex, low ones a tighter complex.

The target in the assay is T1, human cardiac troponin T (cTnT) (human, UniProt P45379 2-298).
T1 construct: also called Recombinant human TnT (Roche, 37 kDa)
Nature of the assay: SPR, Biacore T200, 37 C; Fab captured via anti-human F(ab')2, cTnT analyte. As for the experimental part: Detailed kinetic investigations were performed at 37° C. on a GE Healthcare T200 instrument. A Biacore CM-5 series S sensor was mounted into the instrument and was preconditioned according to the manufacturer's instructions. The system buffer was HBS-ET (10 mM HEPES (pH 7.4), 150 mM NaCl, 1 mM EDTA, 0.05% (w/v) Tween® 20). The sample buffer was the system buffer supplemented with 1 mg/ml CMD (Carboxymethyldextran, Fluka). In one embodiment an anti-human antibody capture system was established on the CMS biosensor. GAHF(ab′)2, (goat anti human F(ab′)2) (Code Nr.: 109-005-097, lot #13.12.2005, Jackson Immuno Research) was immobilized according to the manufacturer's instructions using NHS/EDC chemistry. 30 μg/ml GAHF(ab′)2 in 10 mM sodium acetate buffer (pH 5.0) were preconcentrated to the flow cells 1, 2, 3 and 4 and were immobilized with 10.000 RU GAHF(ab′)2. The sensor was subsequently saturated with 1 M ethanolamine pH 8.5.
Chimeric anti-TnT antibody fragments were periplasmatically expressed in E. coli cells as described and were lyzed by methods known (for technical details see: Andersen, D. C. & Reilly, D. E. (2004); Production technologies for monoclonal antibodies and their fragments. Curr Opin Biotechnol 15, 456-62). The lysates were diluted 1:20 in sample buffer. Fab fragments were captured via their humanized framework regions from the expression lysates on the biosensor at a flow rate of 10 μl/min for 1 min followed by a 2 min washing step with 10-fold concentrated HBS-EP buffer at 30 μl/min. The Fab fragment capture level (CL) in response units (RU) was monitored. Recombinant human TnT (Roche, 37 kDa) was diluted in sample buffer at 90 nM and a concentration series was produced with […], 30 nM, 11 nM, 3.3 nM, 1.1 nM, 0 nM, 3.3 nM TnT concentration. The analyte concentration series were 80 μl/min for 3 min association phase and the dissociation phase was monitored for 3 min.
The kinetic parameters ka [1/Ms], kd [1/s], t1/2 diss [min], KD [M] and the binding stoichiometry (Molar Ratio) (for details see: Schraeml, M. & Biehl, M. (2012); Kinetic screening in the antibody development process. Methods Mol Biol 901, 171-81.) of the cTnT analyte were determined for each Fab fragment mutant with the Biaevaluation Software (GE healthcare) according to the manufacturer's instructions.
(In general: Surface plasmon resonance follows binding to a sensor surface in real time, without labels.)

B1: anti-cTnT Fab fragment, CDR combination 1 (Y34F) (Fab, V domains shown)
VH: EVQLQQSGPELVKPGASVKMSCKASGYTFTDYFMKWVKQSHGKSLEWIGDINPNNGETFYNQKFKDKATLTVDKSSSTAYMQLNSLTSEDSAVYYCATRVFDYWGQGTTLTVSS
VL: DIVLTQSPASLAVSLGQRATISCKASQSVDYDGTSYMNWFQQKAGQPPKRLIYAASNLESGIPARFSGRGSGTDFALNIHPVEEEDAATYYCQQSNEDPYTFGGGTKLEIKR
notes: tested from E. coli lysate; also called mutant 1
B1 gave a Kd of 0.61 nM.

B2: anti-cTnT Fab fragment, CDR combination 19 (Y104F) (Fab, V domains shown)
VH: EVQLQQSGPELVKPGASVKMSCKASGYTFTDYYMKWVKQSHGKSLEWIGDINPNNGETFYNQKFKDKATLTVDKSSSTAYMQLNSLTSEDSAVYYCATRVFDFWGQGTTLTVSS
VL: DIVLTQSPASLAVSLGQRATISCKASQSVDYDGTSYMNWFQQKAGQPPKRLIYAASNLESGIPARFSGRGSGTDFALNIHPVEEEDAATYYCQQSNEDPYTFGGGTKLEIKR
notes: tested from E. coli lysate; also called mutant 19
B2 returned a dissociation constant Kd of 0.48 nM.

B3: anti-cTnT Fab fragment, CDR combination 21 (F60W, V101Y) (Fab, V domains shown)
VH: EVQLQQSGPELVKPGASVKMSCKASGYTFTDYYMKWVKQSHGKSLEWIGDINPNNGETWYNQKFKDKATLTVDKSSSTAYMQLNSLTSEDSAVYYCATRYFDYWGQGTTLTVSS
VL: DIVLTQSPASLAVSLGQRATISCKASQSVDYDGTSYMNWFQQKAGQPPKRLIYAASNLESGIPARFSGRGSGTDFALNIHPVEEEDAATYYCQQSNEDPYTFGGGTKLEIKR
notes: tested from E. coli lysate; also called mutant 21
Molecule B3 registered a t/2-diss of 3 min.

B4: anti-cTnT Fab fragment, CDR combination 9 (Y34I) (Fab, V domains shown)
VH: EVQLQQSGPELVKPGASVKMSCKASGYTFTDYIMKWVKQSHGKSLEWIGDINPNNGETFYNQKFKDKATLTVDKSSSTAYMQLNSLTSEDSAVYYCATRVFDYWGQGTTLTVSS
VL: DIVLTQSPASLAVSLGQRATISCKASQSVDYDGTSYMNWFQQKAGQPPKRLIYAASNLESGIPARFSGRGSGTDFALNIHPVEEEDAATYYCQQSNEDPYTFGGGTKLEIKR
notes: tested from E. coli lysate; also called mutant 9
In the case of B4, the “MR (Molar Ratio)” value came to 0.6.
